Assay results: article PMC9482650, “Quantitative fragmentomics allow affinity mapping of interactomes” (Nature Communications, 2022)

T1: GRIP1_4, Q9Y3R0
T1 sequence (Q9Y3R0 467-571, limits assumed, looked up): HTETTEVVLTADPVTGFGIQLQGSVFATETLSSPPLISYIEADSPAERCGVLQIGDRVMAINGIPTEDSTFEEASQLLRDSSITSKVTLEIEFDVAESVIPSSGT

T2: DLG3_3, Q92796
T2 sequence (Q92796 374-475, limits assumed, looked up): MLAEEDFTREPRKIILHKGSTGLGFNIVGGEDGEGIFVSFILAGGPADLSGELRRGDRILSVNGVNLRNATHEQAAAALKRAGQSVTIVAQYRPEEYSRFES

T3: SNTG1, Q9NSN8
T3 sequence (Q9NSN8 52-150, limits assumed, looked up): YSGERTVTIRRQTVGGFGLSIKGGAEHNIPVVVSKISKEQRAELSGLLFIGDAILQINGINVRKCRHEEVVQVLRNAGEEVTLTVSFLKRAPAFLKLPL

T4: MPP7, Q5T2T1
T4 sequence (Q5T2T1 134-230, limits assumed, looked up): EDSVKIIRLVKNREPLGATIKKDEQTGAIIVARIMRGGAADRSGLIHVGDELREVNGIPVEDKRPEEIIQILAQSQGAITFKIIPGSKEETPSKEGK

T5: LIN7A, O14910
T5 sequence (O14910 103-200, limits assumed, looked up): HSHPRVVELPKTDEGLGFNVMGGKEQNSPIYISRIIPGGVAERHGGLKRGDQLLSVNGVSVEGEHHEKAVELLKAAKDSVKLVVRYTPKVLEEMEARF

T6: RAPGEF6, Q8TEU7
T6 sequence (Q8TEU7 525-625, limits assumed, looked up): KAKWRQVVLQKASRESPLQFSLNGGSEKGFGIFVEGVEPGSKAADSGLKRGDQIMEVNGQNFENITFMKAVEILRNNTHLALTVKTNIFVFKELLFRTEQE

T7: MPP6, Q9NZW5
T7 sequence (Q9NZW5 125-219, limits assumed, looked up): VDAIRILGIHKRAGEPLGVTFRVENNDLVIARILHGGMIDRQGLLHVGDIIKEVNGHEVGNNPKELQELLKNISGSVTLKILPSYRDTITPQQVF

T8: APBA1_1, Q02410
T8 sequence (Q02410 651-752, limits assumed, looked up): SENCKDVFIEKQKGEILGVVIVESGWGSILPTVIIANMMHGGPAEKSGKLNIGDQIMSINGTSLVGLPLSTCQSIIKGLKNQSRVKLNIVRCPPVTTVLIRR


Assays:
Experiment in all cases: holdup assay
Set-up in all cases: key: below the threshold = too weak to quantify, mostly under pKd 3.1 to 4
Conditions in all cases: plain residues with an end cap or a label only (N-terminal biotin on a linker: ado-ado)
Inadl_9, Q8NI35 = biological target: Inadl_9, Q8NI35
LIMK2, P53671 = biological target: LIMK2, P53671
LNX1_3, Q8TBB1 = biological target: LNX1_3, Q8TBB1
LNX1_1, Q8TBB1 = biological target: LNX1_1, Q8TBB1
NHERF4_4, Q86UT5 = biological target: NHERF4_4, Q86UT5
FRMPD2_1, Q68DX3 = biological target: FRMPD2_1, Q68DX3
DLG1_3, Q12959 = biological target: DLG1_3, Q12959
CASK, O14936 = biological target: CASK, O14936
GRIP1_4, Q9Y3R0 = biological target: T1, GRIP1_4, Q9Y3R0
HTRA1, Q92743 = biological target: HTRA1, Q92743
GRIP2_6, Q9C0E4 = biological target: GRIP2_6, Q9C0E4
DLG3_3, Q92796 = biological target: T2, DLG3_3, Q92796
IL16_3, Q14005 = biological target: IL16_3, Q14005
SNTG1, Q9NSN8 = biological target: T3, SNTG1, Q9NSN8
MPP7, Q5T2T1 = biological target: T4, MPP7, Q5T2T1
LIN7A, O14910 = biological target: T5, LIN7A, O14910
RAPGEF6, Q8TEU7 = biological target: T6, RAPGEF6, Q8TEU7
MAGI1_2, Q96QZ7 = biological target: MAGI1_2, Q96QZ7
GRIP2_5, Q9C0E4 = biological target: GRIP2_5, Q9C0E4
MAST1, Q9Y2H9 = biological target: MAST1, Q9Y2H9
GRIP2_4, Q9C0E4 = biological target: GRIP2_4, Q9C0E4
LDB3, O75112 = biological target: LDB3, O75112
MAGI1_1, Q96QZ7 = biological target: MAGI1_1, Q96QZ7
PDZRN4_1, Q6ZMN7 = biological target: PDZRN4_1, Q6ZMN7
HTRA2, O43464 = biological target: HTRA2, O43464
MPP6, Q9NZW5 = biological target: T7, MPP6, Q9NZW5
FRMPD3, Q5JV73 = biological target: FRMPD3, Q5JV73
APBA1_1, Q02410 = biological target: T8, APBA1_1, Q02410
IL16_4, Q14005 = biological target: IL16_4, Q14005
Sequence of IL16_4, Q14005 (Q14005 1229-1329): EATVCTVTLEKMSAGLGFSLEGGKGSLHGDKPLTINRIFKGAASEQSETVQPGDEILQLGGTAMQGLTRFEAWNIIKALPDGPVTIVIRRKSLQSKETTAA

Sequence of GRIP2_4, Q9C0E4 (Q9C0E4 446-548): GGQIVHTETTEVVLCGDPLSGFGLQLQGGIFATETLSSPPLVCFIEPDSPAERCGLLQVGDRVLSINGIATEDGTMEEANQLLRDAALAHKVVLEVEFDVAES
Sequence of MAST1, Q9Y2H9 (Q9Y2H9 962-1065): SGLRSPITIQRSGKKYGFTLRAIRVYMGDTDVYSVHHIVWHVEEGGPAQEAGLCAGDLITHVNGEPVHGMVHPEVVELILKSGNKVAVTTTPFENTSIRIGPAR
Sequence of LIMK2, P53671 (P53671 143-248): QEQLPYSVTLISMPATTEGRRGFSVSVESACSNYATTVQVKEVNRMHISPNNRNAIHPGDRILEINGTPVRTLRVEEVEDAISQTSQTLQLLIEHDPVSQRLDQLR
Sequence of PDZRN4_1, Q6ZMN7 (Q6ZMN7 213-318): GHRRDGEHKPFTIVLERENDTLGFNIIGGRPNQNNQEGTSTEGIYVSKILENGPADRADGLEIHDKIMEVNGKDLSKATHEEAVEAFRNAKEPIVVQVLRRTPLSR
Sequence of GRIP2_5, Q9C0E4 (Q9C0E4 544-642): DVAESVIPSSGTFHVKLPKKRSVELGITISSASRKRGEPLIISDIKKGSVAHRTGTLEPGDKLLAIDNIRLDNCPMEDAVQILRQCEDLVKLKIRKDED
Sequence of MAGI1_1, Q96QZ7 (Q96QZ7 1-106): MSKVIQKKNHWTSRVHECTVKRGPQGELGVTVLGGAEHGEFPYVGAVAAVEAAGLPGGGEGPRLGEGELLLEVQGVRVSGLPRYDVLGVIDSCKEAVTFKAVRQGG
Sequence of LNX1_1, Q8TBB1 (Q8TBB1 261-371): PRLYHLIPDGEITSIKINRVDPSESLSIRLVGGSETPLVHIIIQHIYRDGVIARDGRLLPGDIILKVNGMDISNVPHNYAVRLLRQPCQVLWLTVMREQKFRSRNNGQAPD
Sequence of Inadl_9, Q8NI35 (Q8NI35 1530-1615): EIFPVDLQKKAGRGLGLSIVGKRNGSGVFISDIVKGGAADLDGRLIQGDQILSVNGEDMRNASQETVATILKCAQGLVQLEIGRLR
Sequence of IL16_3, Q14005 (Q14005 1107-1207): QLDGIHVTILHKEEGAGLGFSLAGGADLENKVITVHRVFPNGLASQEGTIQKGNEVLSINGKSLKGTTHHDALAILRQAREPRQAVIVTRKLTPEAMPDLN
Sequence of HTRA2, O43464 (O43464 355-458): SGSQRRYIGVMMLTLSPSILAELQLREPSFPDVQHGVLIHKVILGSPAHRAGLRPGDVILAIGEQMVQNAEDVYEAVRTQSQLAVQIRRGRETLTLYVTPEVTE
Sequence of LDB3, O75112 (O75112 1-94): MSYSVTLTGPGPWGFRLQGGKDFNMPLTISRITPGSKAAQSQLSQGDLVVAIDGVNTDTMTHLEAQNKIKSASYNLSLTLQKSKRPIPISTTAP
Sequence of FRMPD2_1, Q68DX3 (Q68DX3 770-861): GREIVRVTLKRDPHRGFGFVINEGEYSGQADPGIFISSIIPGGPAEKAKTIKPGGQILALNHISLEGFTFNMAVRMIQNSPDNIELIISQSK
Sequence of MAGI1_2, Q96QZ7 (Q96QZ7 456-580): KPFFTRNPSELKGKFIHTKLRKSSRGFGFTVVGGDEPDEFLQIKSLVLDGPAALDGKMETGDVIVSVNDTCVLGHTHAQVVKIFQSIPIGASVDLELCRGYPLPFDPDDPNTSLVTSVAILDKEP
Sequence of FRMPD3, Q5JV73 (Q5JV73 12-100): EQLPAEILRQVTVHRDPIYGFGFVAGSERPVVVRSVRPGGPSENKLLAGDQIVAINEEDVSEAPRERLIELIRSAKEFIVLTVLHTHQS
Sequence of DLG1_3, Q12959 (Q12959 457-571): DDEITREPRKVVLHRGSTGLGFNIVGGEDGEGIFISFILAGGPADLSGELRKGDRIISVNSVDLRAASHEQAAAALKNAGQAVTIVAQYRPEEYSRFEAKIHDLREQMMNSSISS
Sequence of GRIP2_6, Q9C0E4 (Q9C0E4 648-740): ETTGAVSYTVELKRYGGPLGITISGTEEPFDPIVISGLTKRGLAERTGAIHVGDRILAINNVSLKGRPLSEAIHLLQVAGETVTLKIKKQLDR
Sequence of HTRA1, Q92743 (Q92743 360-477): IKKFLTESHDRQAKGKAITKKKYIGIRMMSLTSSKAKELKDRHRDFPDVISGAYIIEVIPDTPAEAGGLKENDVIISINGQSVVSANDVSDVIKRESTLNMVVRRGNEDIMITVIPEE
Sequence of LNX1_3, Q8TBB1 (Q8TBB1 500-596): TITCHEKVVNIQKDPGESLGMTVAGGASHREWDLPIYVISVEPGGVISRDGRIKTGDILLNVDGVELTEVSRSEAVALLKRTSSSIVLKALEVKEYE
Sequence of CASK, O14936 (O14936 487-570): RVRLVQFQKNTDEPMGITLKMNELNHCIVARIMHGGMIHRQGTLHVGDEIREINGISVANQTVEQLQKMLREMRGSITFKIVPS
Sequence of NHERF4_4, Q86UT5 (Q86UT5 464-550): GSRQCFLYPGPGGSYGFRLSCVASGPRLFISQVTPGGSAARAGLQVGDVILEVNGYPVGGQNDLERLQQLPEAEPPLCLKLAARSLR

Row | pKd (Inadl_9, Q8NI35) | pKd (LIMK2, P53671) | pKd (LNX1_3, Q8TBB1) | pKd (LNX1_1, Q8TBB1) | pKd (FRMPD2_1, Q68DX3) | pKd (DLG1_3, Q12959) | pKd (CASK, O14936) | pKd (GRIP1_4, Q9Y3R0) | pKd (HTRA1, Q92743) | pKd (GRIP2_6, Q9C0E4) | pKd (DLG3_3, Q92796) | pKd (IL16_3, Q14005) | pKd (SNTG1, Q9NSN8) | pKd (MPP7, Q5T2T1) | pKd (LIN7A, O14910) | pKd (RAPGEF6, Q8TEU7) | pKd (MAGI1_2, Q96QZ7) | pKd (GRIP2_5, Q9C0E4) | pKd (MAST1, Q9Y2H9) | pKd (GRIP2_4, Q9C0E4) | Binder | also measured
1 | below the threshold | below the threshold | below the threshold | below the threshold | below the threshold | below the threshold | below the threshold | below the threshold | below the threshold | below the threshold | below the threshold | below the threshold | below the threshold | below the threshold | below the threshold | below the threshold | below the threshold | below the threshold | 4.56 | below the threshold | NTALVESEDL [PALLS, Q8WX93;Q8WX93-1] | pKd (NHERF4_4, Q86UT5): below the threshold; pKd (LDB3, O75112): 5.16; pKd (MAGI1_1, Q96QZ7): below the threshold; pKd (PDZRN4_1, Q6ZMN7): below the threshold; pKd (HTRA2, O43464): below the threshold; pKd (MPP6, Q9NZW5): below the threshold; pKd (FRMPD3, Q5JV73): below the threshold; pKd (APBA1_1, Q02410): below the threshold
2 | below the threshold | below the threshold | below the threshold | below the threshold | below the threshold | below the threshold | below the threshold | below the threshold | below the threshold | below the threshold | below the threshold | below the threshold | below the threshold | below the threshold | below the threshold | below the threshold | below the threshold | below the threshold | 4.63 | below the threshold | PAALPESTHM [SLC9A3, P48764] | pKd (NHERF4_4, Q86UT5): below the threshold; pKd (LDB3, O75112): below the threshold; pKd (MAGI1_1, Q96QZ7): below the threshold; pKd (PDZRN4_1, Q6ZMN7): below the threshold; pKd (HTRA2, O43464): below the threshold; pKd (IL16_4, Q14005): below the threshold; pKd (MPP6, Q9NZW5): below the threshold; pKd (FRMPD3, Q5JV73): below the threshold; pKd (APBA1_1, Q02410): below the threshold
3 | below the threshold | below the threshold | below the threshold | below the threshold | below the threshold | below the threshold | below the threshold | below the threshold | below the threshold | below the threshold | below the threshold | below the threshold | below the threshold | below the threshold | below the threshold | below the threshold | below the threshold | below the threshold | below the threshold | below the threshold | VKQYADVEGF [HNRNPK, P61978;P61978-2] | pKd (LDB3, O75112): below the threshold; pKd (MAGI1_1, Q96QZ7): below the threshold; pKd (PDZRN4_1, Q6ZMN7): below the threshold; pKd (HTRA2, O43464): below the threshold; pKd (FRMPD3, Q5JV73): below the threshold; pKd (APBA1_1, Q02410): below the threshold
